Residue numbers refer to the chain shown, from its start. Where two headings read alike, the source gives them in different places.
B1: 330CHI (antibody, human IgG1, V domains shown)
VH: EVKLVESGGGLVQPGGSLKLSCAASGFGFSDYGMAWVRQAPRKGPEWVAFISNSAYSIYYADTVTGRFTISRENAKNTLYLEMSSLRSEDTAMYYCARLGRGNSFAYWGQGTLVTVSA
VL: DIVMTQSPSSLTVTAGEKVTMSCKSSQSLLNSGNQKNYLTWYQQKPGQPPKLLIYWGSTRESGVPDRFTGSGSGTDFTLTISSVQAEDLAVYYCQNELFYPLTFGAGTKLELK
notes: chimeric with the constant region of human IgG1; also called chimeric antibody 330CHI
B2: 3CHI (antibody, V domains shown)
VH: B1 VH with G28T, S54L, R101Y
VL: B1 VL with G57A, E97D, L98Y, F99S
notes: Human-murine chimeric antibody with the constant region of human IgG1; also called chimeric antibody of S5H3B6; original 3CHI antibody
B3: IMAB362-similar-hG1 (antibody, human IgG1, kappa)
heavy: not shown
light: DIVMTQSPSSLTVTAGEKVTMSCKSSQSLLNSGNQKNYLTWYQQKPGQPPKLLIYWASTRESGVPDRFTGSGSGTDFTLTISSVQAEDLAVYYCQNDYSYPFTFGSGTKLEIKRTVAAPSVFIFPPSDEQLKSGTASVVCLLNNFYPREAKVQWKVDNALQSGNSQESVTEQDSKDSTYSLSSTLTLSKADYEKHKVYACEVTHQGLSSPVTKSFNRGEC
notes: Human IgG1/kappa format; also called positive control antibody; positive antibody
B4: 1CHI (antibody, V domains shown)
VH: QIQLVQSGPELKKPGETVKISCKASGYTFTNYGMNWVKQAPGKGLKWMGWINTYTGEPTYADDFKGRFAFSLETSASTAYLQINNLKNEDMATYFCARDGQLGLRFAYWGQGTLVTVSA
VL: NIMMTQSPSSLAVSAGEKVTMSCKSSQSVLYSSNQKNYLAWYQQKPGQSPKLLIYWASTRESGVPDRFTGSGSGTDFTLTISSVQAEDLAVYYCHQYLSSRTFGGGTKLEIK
notes: Human-murine chimeric antibody with the constant region of human IgG1; also called chimeric antibody of B4B10G3

Legend:
[1] = molecular target: T1, human Claudin18.2 (CLDN18.2), full length, on cells (human); test: FACS on NUGC4 cells
T1 construct: also called CLDN18.2-FL; HEK293-CLDN18.2 cells
From the text: (§1) Human gastric cancer cells NUGC4 and stably transfected cells CHO-K1-CLDN18.1 (prepared in Example 5) were used respectively, to verify the specificity and affinity of the anti-CLDN18.2 antibodies above at the cellular level by FAGS technology. After antibody affinity maturation and screening in vitro, each antibody can bind to the CLDN18.2 target on NUGC4 cells, but not to CHO-K1-CLDN18.1 cells, as compared with the original 3CHI antibody.

[2] = molecular target: T1, human Claudin18.2 (CLDN18.2), full …; test: cell-based or functional assay
[3] = molecular target: T1, human Claudin18.2 (CLDN18.2), full …; test: cell-based or functional assay; remark: listed apart in the source
[4] = molecular target: T2, human Claudin18.1 (CLDN18.1), full length, on cells (human, UniProt P56856 1-261); test: FACS on CHO-K1-CLDN18.1 cells
T2 construct: HEK293-CLDN18.1 cells carry a fusion with green fluorescent protein (ZsGreen); CHO-K1-CLDN18.1 cells carry pcDNA3.1-CLDN18.1; The cell line is named under assay; also called CLDN18.1-FL; HEK293-CLDN18.1 cells
From the text: as §1

[5] = molecular target: T1, human Claudin18.2 (CLDN18.2), full …; test: FACS on CHO-K1-CLDN18.2 cells, Graphpad fit
Description: (§2) CHO-K1-CLDN18.2 cells and CHO-K1-CLDN18.1 cells (prepared in Example 5) were digested with gastric cancer cell digestion solution at 37° C. for 15 minutes, respectively; terminated with complete culture medium, centrifuged at 1000 rpm for 5 minutes, the supernatant was discarded; the cells were resuspended with 2% fetal bovine serum-PBS diluent, the cells were adjusted to 1×10⁶ cells/ml, 100 μl of cell suspension was added to each well of the 96-well U-shaped-bottom plate; 2% fetal bovine serum-PBS was used to dilute the humanized antibody and the control antibody to final concentrations of 10 μg/ml, 2 μg/ml, 0.4 μg/ml, 0.08 μg/ml and 0.016 μg/ml, respectively, mixed well with the cells in equal volume, incubated at 4° C. for 1 hour; centrifuged at 1000 rpm for 5 minutes, the supernatant was discarded; 200 μl Cell Stain Buffer (Biolegend) was added to each well to wash twice, centrifuged at 1000 rpm for 5 minutes at each time and the supernatant was discarded; 100 μl of PE-anti human Fc antibody (Biolegend) was added, incubated at 4° C. for 1 hour; washed with Cell Stain Buffer (Biolegend) twice, centrifuged at 1000 rpm for 5 minutes at each time and the supernatant was discarded. 300 μl Cell Stain Buffer was added to resuspend the cells, and detected by BD FACS Jazz flow cytometry analyzer. […]

[6] = molecular target: T1, human Claudin18.2 (CLDN18.2), full …; test: FACS on CHO-K1-CLDN18.2 cells, relative Kd from Graphpad fit
Description: as §2

[7] = molecular target: T2, human Claudin18.1 (CLDN18.1), full …; test: FACS on CHO-K1-CLDN18.1 cells, PE-anti human Fc, MFI
Description: CHO-K1-CLDN18.2 cells and CHO-K1-CLDN18.1 cells (prepared in Example 5) were digested with gastric cancer cell digestion solution at 37° C. for 15 minutes, respectively; terminated with complete culture medium, centrifuged at 1000 rpm for 5 minutes, the supernatant was discarded; the cells were resuspended with 2% fetal bovine serum-PBS diluent, the cells were adjusted to 1×10⁶ cells/ml, 100 μl of cell suspension was added to each well of the 96-well U-shaped-bottom plate; 2% fetal bovine serum-PBS was used to dilute the humanized antibody and the control antibody to final concentrations of 10 μg/ml, 2 μg/ml, 0.4 μg/ml, 0.08 μg/ml and 0.016 μg/ml, respectively, mixed well with the cells in equal volume, incubated at 4° C. for 1 hour; centrifuged at 1000 rpm for 5 minutes, the supernatant was discarded; 200 μl Cell Stain Buffer (Biolegend) was added to each well to wash twice, centrifuged at 1000 rpm for 5 minutes at each time and the supernatant was discarded; 100 μl of PE-anti human Fc antibody (Biolegend) was added, incubated at 4° C. for 1 hour; washed with Cell Stain Buffer (Biolegend) twice, centrifuged at 1000 rpm for 5 minutes at each time and the supernatant was discarded. 300 μl Cell Stain Buffer was added to resuspend the cells, and detected by BD FACS Jazz flow cytometry analyzer.

[8] = molecular target: T3, antigen protein Claudin18.2-His (human, UniProt P56856-2 1-261, limits assumed); test: BLI (Fortebio Octet RED96), antibody on AHC sensor, Claudin18.2-His in solution, 37 °C
T3 construct: also called CLDN18.2 protein
Description: Next, antibodies were immobilized by the AHC sensor, and then combined with different concentrations of antigens, and determination of the affinity was performed according to the manual of Octet RED96.

[9] = molecular target: T3, antigen protein Claudin18.2-His; test: BLI (Fortebio Octet RED96), antibody on AHC sensor, CLDN18.2 protein in solution, 37 °C
Description: Another method is to verify the affinity of the humanized antibody above at the protein level. The antibody was immobilized by the AHC sensor, and combined with different concentrations of antigens, and affinity determination was performed according to the manual of Octet RED96.

[10] = molecular target: T1, human Claudin18.2 (CLDN18.2), full …; test: cellular ELISA on fixed HEK293-CLDN18.2 cells
Description: (§3) HEK293-CLDN18.1 and HEK293-CLDN18.2 cells were resuscitated two weeks in advance, cultured with DMEM complete culture medium containing 10% fetal bovine serum at 37° C., 5% CO₂. When the cells grew to 80%-90% confluency, they were digested with 0.5 mM EDTA-PBS (Sigma) at room temperature, centrifuged at 1000 rpm for 5 minutes, the supernatant was discarded. Cells were resuspended in DMEM complete culture medium, the cell concentration was adjusted to 6×10⁵ cells/ml. Cells were plated on 96-well cell plates (Corning) pre-coated with polylysine at 2.5 μg/well, 100 μl per well, incubated at 37° C., 5% CO₂ for 24 hours, making cells evenly and completely plated on the bottom of the well. The supernatant was aspirated, and the cells were fixed with 4% paraformaldehyde at room temperature for 20 minutes, washed 3 times with 200 μl PBS, 2 minutes at each time. The well plates were blocked with 200 μl of 3% BSA-PBS at 37° C. for 1 hour. Each chimeric antibody was diluted with 3% BSA-PBS to a concentration of 6 μg/ml, and diluted in a 6-fold gradient to a total of 7 concentrations. At the same time, IMAB362-similar-hG1 diluted in the same concentration gradient as the positive control, and human IgG1, kappa isotype control antibody (hereinafter referred to as Isotype, provided by CrownBio (Taicang) Co., Ltd.) as the negative control were added to HEK293-CLDN18.2 and HEK293-CLDN18.1 cell plates, respectively. The cells were incubated at 37° C. for 1 hour, washed 5 times with PBS. Incubation with HRP-anti human IgG (Jackson) diluted 1:10000 in blocking solution was performed at 37° C. for 1 hour followed by washing 5 times with PBS. 100 μl of TMB one-component color developing solution was added, protected from light at room temperature for 5-10 minutes, terminated with 50 μl of 2M sulfuric acid, OD450 was read on the microplate reader. Data processing: the original data was put into GraphPad 5.0 software for plotting and calculation.

[11] = molecular target: T2, human Claudin18.1 (CLDN18.1), full …; test: cellular ELISA on fixed HEK293-CLDN18.1 cells, HRP-anti human IgG, OD450
Description: as §3

[12] = molecular target: T1, human Claudin18.2 (CLDN18.2), full …; test: cell-based or functional assay; remark: listed apart in the source
[13] = molecular target: T1, human Claudin18.2 (CLDN18.2), full …; test: cell-based or functional assay; remark: listed apart in the source
[14] = molecular target: T1, human Claudin18.2 (CLDN18.2), full …; test: FACS on NUGC4 cells, positive rate
Description: The effect of the Fc-mutated humanized antibody on the binding to the target CLDN18.2 was identified by FACS. NUGC4 cells were digested using the gastric cancer cell digestion solution at 37° C. for 15 minutes; terminated by the complete culture medium, centrifuged at 1000 rpm for 5 minutes, the supernatant was discarded; the cells were resuspended with 2% fetal bovine serum-PBS diluent, the cells were adjusted to 1×10⁶ cells/ml, 100 μl of cell suspension was added to each well of the 96-well U-shaped-bottom plate; the antibody was diluted with 2% fetal bovine serum-PBS to final concentrations of 5 μg/ml, 1 μg/ml, 0.2 μg/ml, 0.04 μg/ml and 0.008 μg/ml, mixed with the cells in equal volume, incubated at 4° C. for 1 hour; centrifuged at 1000 rpm for 5 minutes, the supernatant was discarded; 200 μl of Cell Stain Buffer (Biolegend) was added to each well to wash twice, centrifuged at 1000 rpm for 5 minutes at each time and the supernatant was discarded; 100 μl of PE-anti human Fc antibody (Biolegend) was added, incubated at 4° C. for 1 hour; washed twice using Cell Stain Buffer (Biolegend), centrifuged at 1000 rpm for 5 minutes at each time and the supernatant was discarded. 300 μl of Cell Stain Buffer was added to resuspend the cells, detected with BD FACS Jazz flow analyzer.

Row | Binder | MFI (CLDN18.2) [1] [MFI] | in-vitro ADCC activity, Jurkat-CD16A/NF luciferase reporter, EC50 [2] [nM] | in-vitro ADCC activity, Jurkat-CD16A/NF luciferase reporter, Top [2] | ADCC activity by luciferase labeling, EC50 [3] [nM] | ADCC activity by luciferase labeling, Top [3] | MFI (CLDN18.1) [4] [MFI] | Bmax (MFI) [5] [MFI] | Kd [6] [nM] | binding result [7] | Kd [8] [nM] | koff [8] [s⁻¹] | kon [8] [M⁻¹ s⁻¹] | Kd [9] [nM] | koff [9] [s⁻¹] | kon [9] [M⁻¹ s⁻¹] | EC50 [10] [nM] | binding result [11] | also measured
1 | B1 | 63700 | 0.22 | 215000 | 0.18 | 64500 | 49 | 10800 | 1.6 | no binding | 0.84 | 0.000117 | 139000 | 0.249 | 3.23e-05 | 130000 | – | – | –
2 | B2 | 2510 | 0.54 | 212000 | – | – | 76 | – | – | – | – | – | – | – | – | – | 0.08 | no binding (tested: 6000 ng/ml) | –
3 | B3 | 2180 | 0.72 | 216000 | 0.69 | 63600 | 59 | 8220 | 28.7 | no binding | 7.14 | 0.000399 | 55900 | 9.44 | 0.00222 | 235000 | 0.09 | – | ADCC activity by luciferase labeling, EC50 [12]: 1.49 nM; ADCC activity by luciferase labeling, Top [12]: 89600; ADCC cytotoxicity by LDH method, PBMC effectors, EC50 [13]: 2.47 nM; EC50 [14]: 9.78 nM; Top (%) [14]: 58.8%
4 | B4 | – | – | – | – | – | – | – | – | – | – | – | – | – | – | – | 0.55 | no binding (tested: 6000 ng/ml) | –

Reference: patent US20220119517A1 (NANJING SANHOME PHARMACEUTICAL, published 2022)
